In the test the target is B7 QDP/LEK (mouse) (UniProt Q00609). The test is described as follows: flow cytometry on cells.

Chain of CTLA4Ig (P09793 36-161): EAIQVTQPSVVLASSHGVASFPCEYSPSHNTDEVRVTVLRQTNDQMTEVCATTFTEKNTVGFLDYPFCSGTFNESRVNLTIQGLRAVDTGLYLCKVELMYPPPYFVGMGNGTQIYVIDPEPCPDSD

“CTLA4Ig (from UniProt P09793 36-161) (Fc fusion)”: the % wild-type B7 binding (normalised to anti-B7 mAb 10.16A.1) was determined as 15% and the MF (mean fluorescence, control subtracted) turned out to be 42 MF.

The record behind these values is paper PMC2191977 (The Journal of Experimental Medicine, 1995).
